Measured values published in US10081665B2, “Peptides and combination of peptides for use in immunotherapy against various tumors” (immatics biotechnologies GmbH, priority 2015, dated 2018).

These substances were tested against HLA-A*02:01 (Homo sapiens, UniProt P04439, D140Y/D185E/D98H/E176V/E277Q/G131W/G231S/I119V/I121R/I166T/I218V/L300P/L318F/N151K/N90K/P208A/P217A/Q86G/Q94H/R138H/R169H/T345S) (assay: MHC binding assay (UV-ligand exchange, beta2m ELISA)). Settings: binding to HLA-A*02:01, β2m ELISA.
Outline: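 Peptide-MHC complexes made by UV-ligand exchange of a UV-cleavable peptide for test peptide; exchange yield measured by β2m ELISA on streptavidin-coated plates with samples diluted 100-fold, HRP anti-β2m and TMB read at 450 nm. Refolded HLA-A*02:01/MLA-001 monomers (15-500 ng/ml) served as standards.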

Substance	Peptide exchange (MHC class I binding score, peptide exchange yield)
4 (VLFGELPAL; listed as Homo sapiens) [compound 4]	+++ (≥50 = +++)
9 (SLITGQDLLSV; listed as Homo sapiens) [compound 9]	+++ (≥50 = +++)
14 (YTFSGDVQL; listed as Homo sapiens) [compound 14]	+++ (≥50 = +++)
238 (HLQEKLQSL; listed as Homo sapiens) [compound 238]	++ (≥20% = ++)
239 (VIIKGLEEITV; listed as Homo sapiens) [compound 239]	+++ (≥50 = +++)
241 (KQFEGTVEI; listed as Homo sapiens) [compound 241]	+++ (≥50 = +++)
243 (GLAEFQENV; listed as Homo sapiens) [compound 243]	++ (≥20% = ++)
244 (NVAEIVIHI; listed as Homo sapiens) [compound 244]	+++ (≥50 = +++)
245 (ALLEEEEGV; listed as Homo sapiens) [compound 245]	++ (≥20% = ++)
247 (NLLIDDKGTIKL; listed as Homo sapiens) [compound 247]	++ (≥20% = ++)
248 (VLMQDSRLYL; listed as Homo sapiens) [compound 248]	+++ (≥50 = +++)
249 (YLYQILQGI; listed as Homo sapiens) [compound 249]	+++ (≥50 = +++)
250 (LMQDSRLYL; listed as Homo sapiens) [compound 250]	+++ (≥50 = +++)
251 (LLWGNLPEI; listed as Homo sapiens) [compound 251]	+++ (≥50 = +++)
252 (SLMEKNQSL; listed as Homo sapiens) [compound 252]	++ (≥20% = ++)
253 (KLLAVIHEL; listed as Homo sapiens) [compound 253]	+++ (≥50 = +++)
256 (FLNDIFERI; listed as Homo sapiens) [compound 256]	+++ (≥50 = +++)
258 (QLVQRVASV; listed as Homo sapiens) [compound 258]	++ (≥20% = ++)
259 (GPGIFPPPPPQP; listed as Homo sapiens) [compound 259]	+ (≥10% = +)
261 (GLAALAVHL; listed as Homo sapiens) [compound 261]	+++ (≥50 = +++)
262 (LLLEAVWHL; listed as Homo sapiens) [compound 262]	+++ (≥50 = +++)

Substance	Peptide exchange (MHC class I binding score, peptide exchange yield)
265 (FLLDKPQDLSI; listed as Homo sapiens) [compound 265]	+++ (≥50 = +++)
266 (FLLDKPQDL; listed as Homo sapiens) [compound 266]	++ (≥20% = ++)
268 (SLDKDIVAL; listed as Homo sapiens) [compound 268]	++ (≥20% = ++)
269 (GLLDCPIFL; listed as Homo sapiens) [compound 269]	++++ (≥75% = ++++)
270 (TLLTFFHEL; listed as Homo sapiens) [compound 270]	+++ (≥50 = +++)
271 (VLIEYNFSI; listed as Homo sapiens) [compound 271]	+++ (≥50 = +++)
272 (FVMEGEPPKL; listed as Homo sapiens) [compound 272]	++ (≥20% = ++)
273 (SLNKQIETV; listed as Homo sapiens) [compound 273]	++ (≥20% = ++)
274 (TLYNPERTITV; listed as Homo sapiens) [compound 274]	+++ (≥50 = +++)
275 (AVPPPPSSV; listed as Homo sapiens) [compound 275]	++ (≥20% = ++)
276 (RMPTVLQCV; listed as Homo sapiens) [compound 276]	+++ (≥50 = +++)
277 (KLQEELNKV; listed as Homo sapiens) [compound 277]	+++ (≥50 = +++)
278 (VLEDKVLSV; listed as Homo sapiens) [compound 278]	+++ (≥50 = +++)
279 (VLMDEGAVLTL; listed as Homo sapiens) [compound 279]	++ (≥20% = ++)
280 (HLWGHALFL; listed as Homo sapiens) [compound 280]	+++ (≥50 = +++)
281 (LLLESDPKVYSL; listed as Homo sapiens) [compound 281]	++ (≥20% = ++)
282 (SLYALHVKA; listed as Homo sapiens) [compound 282]	++ (≥20% = ++)
283 (ALSELLQQV; listed as Homo sapiens) [compound 283]	+++ (≥50 = +++)
284 (KLMDPGSLPPL; listed as Homo sapiens) [compound 284]	++ (≥20% = ++)
285 (MLLDTVQKV; listed as Homo sapiens) [compound 285]	+++ (≥50 = +++)
286 (FLTEMVHFI; listed as Homo sapiens) [compound 286]	+++ (≥50 = +++)

Each substance was assayed on CD8+ T cells (assay: In vitro immunogenicity: T-cell priming with aAPCs loaded with peptide/MHC complexes and anti-CD28, pMHC multimer readout). Settings: in vitro immunogenicity, HLA-A*02 restricted peptides; percentage of positive wells and donors (among evaluable).
Type: cell-based, human
From the text: In order to obtain information regarding the immunogenicity of the TUMAPs of the present invention, the inventors performed investigations using an in vitro T-cell priming assay based on repeated stimulations of CD8+ T cells with artificial antigen presenting cells (aAPCs) loaded with peptide/MHC complexes and anti-CD28 antibody.
In order to perform in vitro stimulations by artificial antigen presenting cells loaded with peptide-MHC complex (pMHC) and anti-CD28 antibody, the inventors first isolated CD8+ T cells from fresh HLA-A*02 leukapheresis products via positive selection using CD8 microbeads (Miltenyi Biotec, Bergisch-Gladbach, Germany) of healthy donors obtained from the University clinics Mannheim, Germany, after informed consent. PBMCs and isolated CD8+ lymphocytes were incubated in T-cell medium (TCM) until use consisting of RPMI-Glutamax (Invitrogen, Karlsruhe, Germany) supplemented with 10% heat inactivated human AB serum (PAN-Biotech, Aidenbach, Germany), 100 U/ml Penicillin/100 μg/ml Streptomycin (Cambrex, Cologne, Germany), 1 mM sodium pyruvate (CC Pro, Oberdorla, Germany), 20 μg/ml Gentamycin (Cambrex). 2.5 ng/ml IL-7 (PromoCell, Heidelberg, Germany) and 10 U/ml IL-2 (Novartis Pharma, Nürnberg, Germany) were also added to the TCM at this step. Generation of pMHC/anti-CD28 coated beads, T-cell stimulations and readout was performed in a highly defined in vitro system using four different pMHC molecules per stimulation condition and 8 different pMHC molecules per readout condition.
The purified co-stimulatory mouse IgG2a anti human CD28 Ab 9.3 (Jung et al., 1987) was chemically biotinylated using Sulfo-N-hydroxysuccinimidobiotin as recommended by the manufacturer (Perbio, Bonn, Germany). Beads used were 5.6 μm diameter streptavidin coated polystyrene particles (Bangs Laboratories, Illinois, USA).
pMHC used for positive and negative control stimulations were A*0201/MLA-001 (peptide […] (SEQ ID NO. 289) from modified Melan-A/MART-1) and A*0201/DDX5-001 ([…] from DDX5, SEQ ID NO. 290), respectively.
800,000 beads/200 μl were coated in 96-well plates in the presence of 4×12.5 ng different biotin-pMHC, washed and 600 ng biotin anti-CD28 were added subsequently in a volume of 200 μl. Stimulations were initiated in 96-well plates by co-incubating 1×10^6 CD8+ T cells with 2×10^5 washed coated beads in 200 μl TCM supplemented with 5 ng/ml IL-12 (PromoCell) for 3 days at 37° C. Half of the medium was then exchanged by fresh TCM supplemented with 80 U/ml IL-2 and incubating was continued for 4 days at 37° C. This stimulation cycle was performed for a total of three times. For the pMHC multimer readout using 8 different pMHC molecules per condition, a two-dimensional combinatorial coding approach was used as previously described (Andersen et al., 2012) with minor modifications encompassing coupling to 5 different fluorochromes. Finally, multimeric analyses were performed by staining the cells with Live/dead near IR dye (Invitrogen, Karlsruhe, Germany), CD8-FITC antibody clone SK1 (BD, Heidelberg, Germany) and fluorescent pMHC multimers. For analysis, a BD LSRII SORP cytometer equipped with appropriate lasers and filters was used. Peptide specific cells were calculated as percentage of total CD8+ cells. Evaluation of multimeric analysis was done using the FlowJo software (Tree Star, Oreg., USA). In vitro priming of specific multimer+CD8+ lymphocytes was detected by comparing to negative control stimulations.

Substance	Wells positive [%]
4 (VLFGELPAL; listed as Homo sapiens) [compound 4]	+ (<20% = +)
9 (SLITGQDLLSV; listed as Homo sapiens) [compound 9]	+ (<20% = +)
14 (YTFSGDVQL; listed as Homo sapiens) [compound 14]	+ (<20% = +)

Same assay, conditions: positive donors; CD8+ T cells of healthy HLA-A*02 donors, three stimulation cycles, multimer staining

Substance	in vitro immunogenicity: donors
287 (KIQEILTQV; listed as Homo sapiens) [compound 287]	+++ (50%-69% =+++)
288 (SLYKGLLSV; listed as Homo sapiens) [compound 288]	++++ (>= 70% = ++++)

Same assay, conditions: positive wells; CD8+ T cells of healthy HLA-A*02 donors, three stimulation cycles, multimer staining

Substance	in vitro immunogenicity: wells
287 (KIQEILTQV; listed as Homo sapiens) [compound 287]	+ (<20% = +)
288 (SLYKGLLSV; listed as Homo sapiens) [compound 288]	++ (21%-49% = ++)
